{
  "source": "the supplement of paper PMC12042874",
  "note": "± gives the uncertainty stated by the source.",
  "data": [
    {"experiment": "amyloid nucleation score (Sup35N fusion, yeast selection) (log enrichment); library NNK3; higher = more nucleation; inactive = no reads after selection", "outline": "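The nucleation score is the DiMSum log enrichment of output over input reads, centred on the mode score of non-aggregating sequences. Only sequences with 100 or more input reads were scored, using Illumina sequencing of input and output plasmid inserts. Psi-negative yeast expressing Sup35N fused to peptides of 20 random codons were induced 24 hours with 100 μM copper sulfate and grown 7 days at 30°C on medium lacking adenine and uracil.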", "values": [
      {"substance": "LYGLRHYILSEHFGGFVLVG", "amyloid nucleation score": "inactive"},
      {"substance": "CFIMLWCTISFIILVSLVTD", "amyloid nucleation score": "0.671 ± 0.3"},
      {"substance": "ETMVIDWCSTVDRVR", "amyloid nucleation score": "inactive"},
      {"substance": "RMCLITTYTRVFLWLHT", "amyloid nucleation score": "inactive"},
      {"substance": "YSRSTSSEMEAERGSAWLES", "amyloid nucleation score": "inactive"},
      {"substance": "FPCSGPACYIYYTLHGLSLG", "amyloid nucleation score": "inactive"},
      {"substance": "SVIILSCND", "amyloid nucleation score": "inactive"},
      {"substance": "SMSFFMSNGRALLYCQMQFA", "amyloid nucleation score": "inactive"},
      {"substance": "LACSMLCVDPIADGHNFSYS", "amyloid nucleation score": "inactive"},
      {"substance": "NLNWGTLSTRFYCVEDS", "amyloid nucleation score": "inactive"},
      {"substance": "NDIITLSQTLVELSPFGWLS", "amyloid nucleation score": "inactive"},
      {"substance": "FSSQYMSCIVRRHGGNLDAC", "amyloid nucleation score": "0.033 ± 0.39"},
      {"substance": "NRIFIGQVFRIIGPWLGMYH", "amyloid nucleation score": "inactive"},
      {"substance": "LNCAILASHSHYTK", "amyloid nucleation score": "inactive"},
      {"substance": "IHTGKMLTYCFKSNLSVRTS", "amyloid nucleation score": "inactive"},
      {"substance": "FNYMCNLNVCRNIILMTLEL", "amyloid nucleation score": "2.69 ± 0.07"},
      {"substance": "MFVDSSISGIEIR", "amyloid nucleation score": "inactive"},
      {"substance": "IVLSNVRVGIACGDLC", "amyloid nucleation score": "0.182 ± 0.44"},
      {"substance": "YSVVNDSGIFFYVGHHVFAV", "amyloid nucleation score": "inactive"},
      {"substance": "YRYHIMVMKAVIDTNSRKGW", "amyloid nucleation score": "inactive"},
      {"substance": "TCTCKVRLYCTMARSPFIMG", "amyloid nucleation score": "inactive"},
      {"substance": "VSSMYVVIHGV", "amyloid nucleation score": "inactive"},
      {"substance": "ISIPLLIMLPELGTASMVNG", "amyloid nucleation score": "inactive"},
      {"substance": "DPTSLGRQRLTRDKIPQNWS", "amyloid nucleation score": "inactive"},
      {"substance": "LPLPFFQRVNNGKSVLGVHL", "amyloid nucleation score": "inactive"},
      {"substance": "DRFLLFFH", "amyloid nucleation score": "inactive"},
      {"substance": "ITLLCLFNATL", "amyloid nucleation score": "1.98 ± 0.085"},
      {"substance": "AKCMSNYYERCVLNTERREL", "amyloid nucleation score": "inactive"},
      {"substance": "IVSALQFAEAKL", "amyloid nucleation score": "inactive"},
      {"substance": "IDRLLLNTKYIVQGLPNWTK", "amyloid nucleation score": "inactive"},
      {"substance": "ITILT", "amyloid nucleation score": "inactive"},
      {"substance": "FIPYYRCDQMLSGILVRFFS", "amyloid nucleation score": "inactive"},
      {"substance": "TYLNTVRLKSGMMMNMKSTR", "amyloid nucleation score": "inactive"},
      {"substance": "VTSAPNKCFNLFYVNWDHNN", "amyloid nucleation score": "0.784 ± 0.17"},
      {"substance": "VSTYGWAVRWGVFWGSMTYT", "amyloid nucleation score": "inactive"},
      {"substance": "DCDRILLV", "amyloid nucleation score": "inactive"},
      {"substance": "QMCVVPTTY", "amyloid nucleation score": "inactive"},
      {"substance": "MSLLGQ", "amyloid nucleation score": "inactive"},
      {"substance": "IFLKNCLLWKTAGSFMNSIA", "amyloid nucleation score": "inactive"},
      {"substance": "NALRFNLWMLNTVKVEYRSD", "amyloid nucleation score": "2.15 ± 0.067"},
      {"substance": "GTTYTAHYAWSTVGDIWSLH", "amyloid nucleation score": "inactive"},
      {"substance": "THGVR", "amyloid nucleation score": "inactive"},
      {"substance": "TVDVIRYISPDLDKTSYEWK", "amyloid nucleation score": "inactive"},
      {"substance": "RGANYVFGWKITVNAFEGEC", "amyloid nucleation score": "0.838 ± 0.14"},
      {"substance": "MCRTMLSPLMR", "amyloid nucleation score": "inactive"},
      {"substance": "TVPDRDFMFIRIRSHCYVVD", "amyloid nucleation score": "inactive"},
      {"substance": "RILRVRF", "amyloid nucleation score": "inactive"},
      {"substance": "RSEVQHKLVSFLSKLIPRAS", "amyloid nucleation score": "inactive"},
      {"substance": "IMSRCISTHLG", "amyloid nucleation score": "inactive"},
      {"substance": "DSVMVYIRFIAMSSPQKG", "amyloid nucleation score": "inactive"},
      {"substance": "RILVMVNKG", "amyloid nucleation score": "0.81 ± 0.17"},
      {"substance": "NTSDPSNRFLPFLYVRLHSS", "amyloid nucleation score": "inactive"},
      {"substance": "KGTPGLDFTAADPGVIAL", "amyloid nucleation score": "inactive"},
      {"substance": "SYGSLM", "amyloid nucleation score": "0.198 ± 0.27"},
      {"substance": "WESLIGLWASAGMIWVHWGS", "amyloid nucleation score": "inactive"},
      {"substance": "GKFFMVSRYCESSSLRFESM", "amyloid nucleation score": "1.15 ± 0.17"},
      {"substance": "VKSRNENIDPGCWRLELAPF", "amyloid nucleation score": "inactive"},
      {"substance": "LLTARTITSCKQWPGTSRYT", "amyloid nucleation score": "inactive"},
      {"substance": "SVIRWFVTLWLGEHLRASDT", "amyloid nucleation score": "inactive"},
      {"substance": "FLNSKGFTIAGYKNSKWGSR", "amyloid nucleation score": "inactive"},
      {"substance": "YDRPSVVRTWRTREKAVSGP", "amyloid nucleation score": "inactive"},
      {"substance": "VEVRVYTFF", "amyloid nucleation score": "2.23 ± 0.074"},
      {"substance": "GAFMLEGAIRRFS", "amyloid nucleation score": "inactive"},
      {"substance": "CDHYRISWNLKWLVVRMYY", "amyloid nucleation score": "inactive"},
      {"substance": "TFSGVCIVIAYCGVFNILEG", "amyloid nucleation score": "1.94 ± 0.097"},
      {"substance": "FGAKR", "amyloid nucleation score": "0.909 ± 0.18"},
      {"substance": "EISSVAAYGSN", "amyloid nucleation score": "inactive"},
      {"substance": "NMTTLVKTMEDNMDSCISGV", "amyloid nucleation score": "1.12 ± 0.11"},
      {"substance": "DVDFPSFAGFMVTISIGIFV", "amyloid nucleation score": "inactive"},
      {"substance": "SNFGTNSIYMCTAMIPM", "amyloid nucleation score": "inactive"},
      {"substance": "RPAWTRTSTVDKLQIELRYE", "amyloid nucleation score": "inactive"},
      {"substance": "RVGCVQYQFRRCRGWKSNKA", "amyloid nucleation score": "inactive"},
      {"substance": "VWTRTWLLMTCHCNRFKDCS", "amyloid nucleation score": "1.67 ± 0.12"},
      {"substance": "TFKHTFNNVHCSGAFTGSQL", "amyloid nucleation score": "0.161 ± 0.25"},
      {"substance": "NSDATIWYFHRCSRLYVAGM", "amyloid nucleation score": "inactive"},
      {"substance": "LLERDYR", "amyloid nucleation score": "inactive"},
      {"substance": "QDVVNPPLFY", "amyloid nucleation score": "inactive"},
      {"substance": "ARSIFEVTRHEAAGRMSVFS", "amyloid nucleation score": "-0.01 ± 0.96"},
      {"substance": "LKWQVRHLWGNDVVGHRYTH", "amyloid nucleation score": "-0.546 ± 0.6"}
    ]}
  ]
}
